Results published in patent US20150064134A1.

Tests used:
Assay in all cases: cell-based or functional assay
AMPKα1(h) (human) = AMPKα1(h) (human) (UniProt Q13131)
BRK(h) (human) = BRK(h) (human) (UniProt Q13882)
BTK(R28H)(h) (human) = BTK(R28H)(h) (human) (UniProt Q06187)
CLK3(h) (human) = CLK3(h) (human) (UniProt P49761)
EphA1(h) (human) = target: T1, EphA1(h) (human) (UniProt P21709)
T1 sequence (looked up): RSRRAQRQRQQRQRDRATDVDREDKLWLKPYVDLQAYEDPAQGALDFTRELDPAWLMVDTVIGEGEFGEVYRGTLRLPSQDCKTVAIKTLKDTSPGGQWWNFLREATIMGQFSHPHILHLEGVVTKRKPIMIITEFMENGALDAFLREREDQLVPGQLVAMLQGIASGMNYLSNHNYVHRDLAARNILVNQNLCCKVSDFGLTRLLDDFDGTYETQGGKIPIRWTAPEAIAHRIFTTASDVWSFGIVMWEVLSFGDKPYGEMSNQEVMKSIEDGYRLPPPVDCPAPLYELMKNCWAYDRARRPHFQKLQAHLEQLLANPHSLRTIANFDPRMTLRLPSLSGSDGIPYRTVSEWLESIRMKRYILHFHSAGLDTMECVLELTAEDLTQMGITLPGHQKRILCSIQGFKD

IRAK4(h) (human) = target: T2, IRAK4(h) (human) (UniProt Q9NWZ3)
T2 sequence (looked up): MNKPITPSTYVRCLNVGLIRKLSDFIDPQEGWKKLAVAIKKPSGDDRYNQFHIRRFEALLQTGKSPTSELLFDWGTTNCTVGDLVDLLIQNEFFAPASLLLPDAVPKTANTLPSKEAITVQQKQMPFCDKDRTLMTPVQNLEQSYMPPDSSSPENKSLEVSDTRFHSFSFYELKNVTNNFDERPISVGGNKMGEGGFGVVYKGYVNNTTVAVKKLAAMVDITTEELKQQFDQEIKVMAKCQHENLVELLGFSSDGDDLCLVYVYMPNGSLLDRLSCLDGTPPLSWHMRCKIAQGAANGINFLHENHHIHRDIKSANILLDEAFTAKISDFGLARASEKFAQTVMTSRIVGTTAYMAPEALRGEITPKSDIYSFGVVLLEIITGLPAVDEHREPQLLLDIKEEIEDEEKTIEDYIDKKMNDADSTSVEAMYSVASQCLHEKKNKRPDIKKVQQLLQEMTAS

PDK1(h) (human) = target: T3, PDK1(h) (human) (UniProt O15530)
T3 sequence (looked up): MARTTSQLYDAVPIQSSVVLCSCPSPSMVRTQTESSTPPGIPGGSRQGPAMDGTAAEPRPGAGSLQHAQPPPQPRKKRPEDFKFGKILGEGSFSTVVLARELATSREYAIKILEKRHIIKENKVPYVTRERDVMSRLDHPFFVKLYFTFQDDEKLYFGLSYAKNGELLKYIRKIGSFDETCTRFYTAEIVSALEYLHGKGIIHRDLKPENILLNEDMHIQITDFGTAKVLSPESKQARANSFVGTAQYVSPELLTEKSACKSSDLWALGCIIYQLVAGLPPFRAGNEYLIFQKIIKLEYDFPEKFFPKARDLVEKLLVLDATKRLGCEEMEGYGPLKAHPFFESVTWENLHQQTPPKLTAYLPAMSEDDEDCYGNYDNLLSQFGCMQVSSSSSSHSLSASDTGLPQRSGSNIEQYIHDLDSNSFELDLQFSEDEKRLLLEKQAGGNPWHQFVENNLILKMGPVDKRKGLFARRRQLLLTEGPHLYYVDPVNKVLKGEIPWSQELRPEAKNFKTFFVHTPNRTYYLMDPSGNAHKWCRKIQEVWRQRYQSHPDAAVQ

PKBβ(h) (human) = PKBβ(h) (human) (UniProt P31751)
PKBβ(h) (human), sequence (P31751 whole entry): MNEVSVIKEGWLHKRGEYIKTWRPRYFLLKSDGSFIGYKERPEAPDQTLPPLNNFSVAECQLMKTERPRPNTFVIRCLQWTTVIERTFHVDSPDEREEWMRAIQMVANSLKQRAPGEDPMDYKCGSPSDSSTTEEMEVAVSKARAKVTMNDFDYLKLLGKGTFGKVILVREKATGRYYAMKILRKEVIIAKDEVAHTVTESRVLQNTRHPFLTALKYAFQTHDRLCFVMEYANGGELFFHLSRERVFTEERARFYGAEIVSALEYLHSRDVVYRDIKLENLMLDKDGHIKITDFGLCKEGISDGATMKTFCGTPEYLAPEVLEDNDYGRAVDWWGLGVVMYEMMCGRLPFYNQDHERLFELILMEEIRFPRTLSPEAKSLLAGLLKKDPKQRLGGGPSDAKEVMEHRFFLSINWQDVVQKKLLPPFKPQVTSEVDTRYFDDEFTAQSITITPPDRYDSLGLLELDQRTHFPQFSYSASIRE

PKBγ(h) (human) = PKBγ(h) (human) (UniProt Q9Y243)
PKBγ(h) (human), sequence (Q9Y243 whole entry): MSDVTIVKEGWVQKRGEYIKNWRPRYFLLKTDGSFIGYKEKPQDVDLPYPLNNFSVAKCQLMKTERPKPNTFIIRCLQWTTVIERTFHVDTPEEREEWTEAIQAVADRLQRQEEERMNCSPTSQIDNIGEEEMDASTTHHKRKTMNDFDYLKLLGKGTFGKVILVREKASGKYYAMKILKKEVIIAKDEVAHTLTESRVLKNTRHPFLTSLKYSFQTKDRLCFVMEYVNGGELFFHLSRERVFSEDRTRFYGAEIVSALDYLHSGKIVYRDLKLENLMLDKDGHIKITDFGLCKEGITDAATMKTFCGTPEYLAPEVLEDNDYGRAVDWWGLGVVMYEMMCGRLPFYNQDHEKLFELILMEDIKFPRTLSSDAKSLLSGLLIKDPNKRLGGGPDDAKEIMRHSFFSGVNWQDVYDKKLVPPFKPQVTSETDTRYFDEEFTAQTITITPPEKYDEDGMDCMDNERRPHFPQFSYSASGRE

TAO3(h) (human) = target: T4, TAO3(h) (human) (UniProt Q9H2K8)
T4 sequence (looked up): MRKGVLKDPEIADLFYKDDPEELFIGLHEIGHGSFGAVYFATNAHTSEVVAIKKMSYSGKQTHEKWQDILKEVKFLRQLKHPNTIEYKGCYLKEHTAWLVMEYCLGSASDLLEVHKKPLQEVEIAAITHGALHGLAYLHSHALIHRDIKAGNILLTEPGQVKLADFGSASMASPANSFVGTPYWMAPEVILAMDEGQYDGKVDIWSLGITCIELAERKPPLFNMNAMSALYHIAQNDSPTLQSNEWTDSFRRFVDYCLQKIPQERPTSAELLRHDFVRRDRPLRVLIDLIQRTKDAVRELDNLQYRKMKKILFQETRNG

Tec(h) activated (human) = target: T5, Tec(h) activated (human) (UniProt P42680)
T5 sequence (looked up): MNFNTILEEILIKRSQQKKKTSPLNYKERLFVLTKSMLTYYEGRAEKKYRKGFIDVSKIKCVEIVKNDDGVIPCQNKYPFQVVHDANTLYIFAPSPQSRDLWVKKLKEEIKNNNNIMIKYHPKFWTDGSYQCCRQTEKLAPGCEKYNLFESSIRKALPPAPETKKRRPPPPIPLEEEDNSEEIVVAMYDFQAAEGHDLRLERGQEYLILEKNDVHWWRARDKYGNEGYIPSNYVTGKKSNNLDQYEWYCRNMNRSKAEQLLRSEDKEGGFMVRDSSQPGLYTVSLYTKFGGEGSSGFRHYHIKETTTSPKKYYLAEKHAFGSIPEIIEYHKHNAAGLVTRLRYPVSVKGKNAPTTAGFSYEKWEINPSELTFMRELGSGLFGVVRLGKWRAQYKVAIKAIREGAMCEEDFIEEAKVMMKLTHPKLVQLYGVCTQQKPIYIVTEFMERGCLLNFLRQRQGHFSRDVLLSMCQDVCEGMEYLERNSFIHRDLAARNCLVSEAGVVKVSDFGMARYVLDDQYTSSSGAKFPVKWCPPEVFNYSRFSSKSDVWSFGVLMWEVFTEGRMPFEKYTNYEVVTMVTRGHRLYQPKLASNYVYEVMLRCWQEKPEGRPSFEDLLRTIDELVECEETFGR

| % activity at 100 µM (AMPKα1(h) (human)) [%] | % activity at 100 µM (BRK(h) (human)) [%] | % activity at 100 µM (BTK(R28H)(h) (human)) [%] | % activity at 100 µM (CLK3(h) (human)) [%] | % activity at 100 µM (EphA1(h) (human)) [%] | % activity at 100 µM (IRAK4(h) (human)) [%] | % activity at 100 µM (PDK1(h) (human)) [%] | % activity at 100 µM (PKBβ(h) (human)) [%] | % activity at 100 µM (PKBγ(h) (human)) [%] | % activity at 100 µM (TAO3(h) (human)) [%] | % activity at 100 µM (Tec(h) activated (human)) [%] | Substance |
| --- | --- | --- | --- | --- | --- | --- | --- | --- | --- | --- | --- |
| 71 | 35 | 74 | 61 | 73 | 59 | 135 | 84 | 20 | 77 | 56 | MMI-0300 (peptide) |
| 87 | 18 | 24 | 84 | 61 | 59 | 159 | 98 | 41 | 67 | 29 | MMI-0400 (peptide) |
| 35 | 41 | 10 | 76 | 40 | 3 | 178 | 21 | 20 | 12 | 33 | MMI-0500 (peptide) |
